{"source": "the DeepSol protein solubility set"}
{"experiment": "soluble on expression in E. coli; label from the status in PepcDB or PDB records"}
{"sequence": "MAHHHHHHMKKKGCHSDRKHCQKHVQAELCLFILHSVLRKCPNKMVHSILQNSHGNIRKKFEISLKHETSTPAPQKRRREVLLKRKTNSKRGNRA", "soluble on expression in E. coli": "not soluble"}
{"sequence": "SATFVSELEAAKKNLSEALGDNVKQYWANLKLWFKQKISKEEFDLEAHRLLTQDNVHSHNDFLLAILTRCQILVSTPDGAGSLPWPGGSAAKPGKPKGKKKLSSVRQKFDHRFQPQNPLSGAQQFVAKDPQDDDDLKLCSHTMMLPTRGQLEGRMIVTAYEHGLDNVTEEAVSAVVYAVENHLKDILTSVVSRRKAYRLRDGHFKYAFGSNVTPQPYLKNSVVAYNNLIESPPAFTAPCAGQNPASHPPPDDAEQQAALLLACSGDTLPASLPPVNMYDLFEALQVHREVIPTHTVYALNIERIITKLWHPNHEELQQDKVHRQRLAAKEGLLLC", "soluble on expression in E. coli": "soluble"}
{"sequence": "MGSDKIHHHHHHMPITFVDRESELKFLESLWKRRNSFVPVYGRRRIGKTRLVKEFIKGKPSVYYLSRNSSYNDNLYGFSQVVLEAYPSPYLTPKSFSTFTDIFRYLSEKGKVVVVIDEFPYLINSDKRILSEFQYIIDEIVRNSEIHLILVGSSIGMMEEHVLSQKSPLYGRRDGQIRLHSLDFFSSWKLLGVSLEEAIKIYGVTGGIPAYLILFKKFEDLKNVAFSKQGFLYAEADFLLSSELREPRVYKLILKAIAEGKRRFNEISTFTGIPRPNLFKYIEVLERLGLLRREAPITAPPKTKNTRYKIVDNYIAFYFRFIEKYRHEIELESINFWEEFLEDYNNYLGEVFEDIACQFLVRLNKKRMFPFRFSKIGRWWHKNEEIDLVALDKREKRASFIEVKWKTLKEGEARSILRDLERKSKLVGLDYWNKNYGLIAKHIEGKENLREEGFLAWDLRDFELVKKE", "soluble on expression in E. coli": "not soluble"}
{"sequence": "MGSDKIHHHHHHMADFPTRPDEVDAVWLEARLADAGVLDGARIVKVEWQSIGTGQVGDTARFSLTYDRPAPLAPASVAAKFPSSDPTSRQTAASFSLYKREVNFYRDVAGLIDMRVPRAYAALLDDNGCDFVLLFEDLGPCEAGNQLSGCGIDQARDALRQAAALHAATLDHPVLDSEWLQTDPQASAMLRALYPQAQAIFRERYADALDPALMAICDELDECADLWFDRKPARRSFLHGDFRLDNMLFGIRDGQEPIALVDWQTAAVGCGLTDIGYFMGCGIGSGLRRPHEAALLDLYCAEMTRRGVAMTRDEIMDDYRIGALHGVSTAVFSSAFVVRTERGDANFLSMARGACELALEHNSLGALKRRMENA", "soluble on expression in E. coli": "not soluble"}
{"sequence": "GPGSMLGGRHFQRKYEKKQKKKEAKKASQGPLRGAGGSSGVRAAVAAAAGAAVKRKDGSTLKGPVVSHGDFMASRDSANNRKNVPFSSKMEEKVYRKEHRVPKYNSIVDPERQNLAKAAGASSAAQRRRVLRQKGGDDLLDHFRERLNASTFRLLNEQVYNAPTTLASRLLREEATFRDYHTGYHQQLMQWPINPNKLIVESLLGDRRGRFLANKGKSMPGHIPPSWVVADMGCGEAQIAAALKPKGYTVHSFDFFALNSLVTVADTTKVPLADNHVDVCVFSLSLMATDYVKSLFEAFRVLKPKRLLKIIEVRSRVPFPRKFAELVEDIGFDVDYSDVAGDYFVAFDFIKKDGQAAANTQLRHEPGDVLVPSLYKKR", "soluble on expression in E. coli": "soluble"}
{"sequence": "GPGSMISLDAYVRYVYQYSSPTTTEHLRQTVWGPLGLCSGASASPKPISGAQPCWRDASVSHEVLYAVPPITTNVRCVGSRIDAHLTDLLEALPLSSPTVPPTTPAAATLASRFARPSRLATIGLPFCLCVKPQTEHLTPWSLLCTSSSSPTDASNPEMNRKQPSRPLVLVVDTGAAEAVLRGSDLYAPGIVTASRPFHAGERAVVAFYVERVAGTGDEAQNGSAEAPCRLVCALPTGATLSAEQFEPLDMDVDYQDKHQQVDMLAGRSTFLVCIGSGVTCMEWKTVMSRSVHGTALRMEWTPQGQPSRATLRALLGITKGTEDSNARSSTPLPQPPSSGVEEGEERAADVFFLQNYSSMVPVALLVQHLSPAALRRAWTHSDDADQGRSPVPCTILDACAAPGGKTSLLLSLLQERAEQERTAMAEAAIPLPSATVATEPFRVVCCERSRPRQEQLMSLLHRHFASHLAAPSASPSLNSTPAVDVPYVTRVLESRCVDTNKFLKRKLTEAAGSSDGSAASHTASFDAVLLDPPCTGMGLRPKLMPHVQSIASIQRSADYQRKLFDSCIRHIRGSPTSPGVIVYSTCTTTLEENEANVLHFLCTYPSVRLARARTAAQRALCGLSTVRSYGAQHDTDGSHGSTCLCSCLLRNEITEVQLAKERAAAAEGLSSTDPLLLLRFMPRPLDIYDDISEDGVGFFVAVFLCSGYTDA", "soluble on expression in E. coli": "not soluble"}
{"sequence": "MEVSTSYCTPAVNFKYGSFQDSDVSMREDDLFRMGSYNSQGYYADGTHLDGSIGEEDETSSGSNDQHMDFEEDDFDMESSMTEDLVDEDEEEEDEEDNDEWTNQKRTDNQNSVAYYAAMEMLRIRFPFQSIAIRISDFCCLQEKDLLNDTMIDFYLNHIVEHVLPDSNGSNVTVLPSIFWHNLSLRQHAFDSEDEKMMSDEQKMDLKFGDLHDFVADFDLQDFDYIVVPVNEWEHWSLAVICHPFTAQARTVIFDSQLTADLNNLQNMATLIESFMKYSYEKRTGNAMPFPLPCILPQRMPQQTNNFDCGIFIAEFARRFLLSPPKDPATISLCFHPLATLL", "soluble on expression in E. coli": "not soluble"}
{"sequence": "MKQITGVYTAPRPHWVGDGFPVRSLFSYQSHAQQLSPFLLLDYAGPHTFTPGNEKRGVGEHPHRGFETVTIVYSGEVEHRDSTGRGGVIGPGDVQWMTAGAGILHEEFHSDAFTRRGGELEMVQLWVNLPMKDKMTTPGYQSITHDVIPTVTLPDNAGVVRVIAGRYEETKGPAHTFSPLNVWDMRLQRNRQLTLAQPEGWSTALVVLKGNITVNGTTPVNEAQLVVLSQQGKTLHLEASSDASVLLLSGEPLNEPIVGYGPFVMNTKQEIAEAVRDFNSGRFGQI", "soluble on expression in E. coli": "not soluble"}
{"sequence": "MMSETGFIDVKIFPQRLLKPETAEKLLNRIYELEGIVRVLVHGPSIPDRVYYGPARGTEVNHSDRRKITVRGEEFELRVKVGEIIVGMLPETLEEKMETIEEILDEVLPCSYKVFIGAFTKKDITISDYLKYGLKFEEKIDPRVIGMVDPSSRMKDTVVNIKLEHHHHHH", "soluble on expression in E. coli": "soluble"}
{"sequence": "MGSSHHHHHHSSGLVPRGSHMVASETLKTKKMEVQIKKNFPSVLQYTMTDGKVMYGQSKDVRTVEINGTNIELGDDDVTFKKVSDTEATYTLKVKDEAKKIDAVITVQITVKANQLHLNVTKIKNNLSEGIPEGNGVEENAIQTLSFPNQSLVSVRSSQENAQFTGARMSSNTQKPGDTNFAVTEDTNVTDSDYTYGFISGAGLSAGLWSNSEHDGTYVAAPVRGGSQNTRVYATTQQTGDATSLGLASAPWYYHRTVTDSKGKKYTVAETALPQMAVAIAGDENEDGAVNWQDGAIAYRDIMNNPYKSEEVPELVAWRIAMNFGSQAQNPFLTTLDNVKKVALNTDGLGQSVLLKGYGNEGHDSGHPDYGDIGQRLGGADDMNTMMEEGSKYGARFGVHVNASEMYPEAKAFSEDMVRRNSAGGLSYGWNWLDQGVGIDGIYDLASGSRVSRFADLSKEVGDNMDFIYLDVWGNLTSSGSEDSWETRKMSKMINDNGWRMTTEWGSGNEYDSTFQHWAADLTYGGYTSKGENSEVMRFLRNHQKDSWVGDYPQYGGAANAPLLGGYNMKDFEGWQGRNDYAAYIKNLYTHDVSTKFIQHFKVTRWVNNPLLTADNGNAAAVSDPNTNNGNEQITLKDSNGNVVVVSRGSNDTSSAAYRQRTITFNGVKVASGVVSAGDGSATGDESYLLPWMWDSFTGKLVKDSEQKLYHWNTKGGTTTWTLPDSWKNLSSVKVYQLTDQGKTNEQTVAVSGGKVTLTADAETPYVVYKGEAKQIQVNWSEGMHVVDAGFNGGSNTLTDNWTVSGSGKAEVEGDNNAMLRLTGKVDVSQRLTDLKAGQKYALYVGVDNRSTGDASVTVTSGGKVLATNSTGKSIAKNYIKAYGHNTNSNTENGSSYFQNMYVFFTAPENGDATVTLSHKSTDGAHTYFDDVRIVENQYSGITYEKDGTLKSLTNGFENNAQGIWPFVVSGSEGVEDNRIHLSELHAPFTRAGWDVKKMDDVLDGTWSVKVNGLTQKGTLVYQTIPQNVKFEAGAKYKVSFDYQSGSDDIYAIAVGQGEYSAGSVKLTNLKKALGETGKAEFELTGGVNGDSWFGIYSTATAPDLQGSTGNAQDFGGYKDFVLDNLKIERIESQTRTKAEAQDKVKEIRGKYDSKRAELSDAAWQQYQDTLVKARVLINKNGATAEDFTKAYDILVALDEYMKTAPGNESSDKYDVAADGSDELGGYTVATGSEEPTAGLPSEGPADLAQDGNDSTHWHTSWSENAVGNGTAWYQFNLNEPTTINGLRYLPRSGGMNANGKIKGYKITLTLADGTTKDVVTDAEFSTTTMWQKASFDAVENVTAVRLTVLSSAGQSDSQANKFASAAELRLTTDRE", "soluble on expression in E. coli": "soluble"}
{"sequence": "MSSSSPGEPLEPTDQDLDVLLKNLGNLVTPMALRVAATLRLVDHLLAGADTLAGLADRTDTHPQALSRLVRHLTVVGVLEGGEKQGRPLRPTRLGMLLADGHPAQQRAWLDLNGAVSHADLAFTGLLDVVRTGRPAYAGRYGRPFWEDLSADVALADSFDALMSCDEDLAYEAPADAYDWSAVRHVLDVGGGNGGMLAAIALRAPHLRGTLVELAGPAERARRRFADAGLADRVTVAEGDFFKPLPVTADVVLLSFVLLNWSDEDALTILRGCVRALEPGGRLLVLDRADVEGDGADRFFSTLLDLRMLTFMGGRVRTRDEVVDLAGSAGLALASERTSGSTTLPFDFSILEFTAVSEEAAPAAQASEALPAQE", "soluble on expression in E. coli": "soluble"}
{"sequence": "MARTAVPDNQPEITGFRIVLNNFEGPFDLLLQLISAKKLDVTDVALHKVTDDFVAYTRALGEFAELDEVTEFLVVAATLLDLKAARLLPRGEVDDLSDLELLESRDLLFARLLQYKAYKQVADQFARWQLAAQRRYPRAVGMEEQFSSLLPPVKISHTPKSFAELAASVFRPKPPDTVGTSHVHGVEVSVPEQAGKVLDLLVECGEGVWMDFPDLITGCRVSLEVVGRFLALLELYKARAVSLEQEESLGALRVSWTGIHVDPAIVAASNWA", "soluble on expression in E. coli": "not soluble"}
{"sequence": "MGSDKIHHHHHHMNDLPLADLDAFATIARLRNFRAAGKLRGVSASSLSEAMRRLEARVGVRLLNRTTRSVTLTDAGARLLERLSPTLADIELALDDINQFRERPFGRLRLNVPGIVARCVLPPVVTGFLAAYPDILLEVTVNDALIDVLAEGCDAGIRYEEALHQDMIAVPIGPRRQRYVCVAAPSYLEQYGRPEHPRDLIHHRSILHRFNSGRVNEWHFEREGEAINVSPPPRLIAETVDLELAAVRAGLGMMGTFEDFVIEDLNAGRLERVLTDWEDEFSGPFLYYHSRRHMPVPLRVFVDYIRQHGDPG", "soluble on expression in E. coli": "not soluble"}
{"sequence": "MKNYPVKKNDVIEVEIIDLTHEGLGVAKVDHYPLFIENALPGEKLEIKVLKTGKSFGYGKVLTVLKSSEQRVPVKDENFTKVGISPLQHLAYGAQLSFKTQQVENVMQRVAKLQEVPVLPTIGMNDPWHYRNKAQIPVRKIDNQLQTGFFRKNSHDLIPMEHFYIQDPEIDAAIVKIRDIMRKYSVKPYNESDNTGNLRHIVVRRGYHTGEMMVVLITRTPKLFPISKIVPDILEAIPEVVSIVQNVNPKRTNVIFGDETILLHGSEKITDTIFDLKFEISARSFYQVNPQQTEVMYQKVKEYAALTGNEIVVDAYCGIGTIGLTLAQDAKQVYGIEVIEEAVKDAENNAKLNNIENATFTAGLAEELLPKLVENGLQPDVVVVDPPRKGLDGQLVNTLIETQPERIVYVSCNPATLARDIALLTEGGYEAKEIQPVDNFPQTTHIESVTLLTKAVD", "soluble on expression in E. coli": "not soluble"}
{"sequence": "MGSDKIHHHHHHVENWDEVRTAYQVARLGTVSGAADVLGVHHATVIRHIDAIEARLGVKLFQRHARGYTATEAGLDLLRVAQATDDQFSQLVGRLKGQGDEVSGELVVTSLSSMAPMLAPALAEFQQLHPDLVIRYLTGDRLFRLEYGEAHVALRAGAAPEQPDNVVQPFVAQRLALYASREYVERHGMLKGQDDMVNHRFIASDNENTRAPFERWLRSTIPAENIVFRCSDAVAGHQAIRAGAGIGFVSLWEAASSPDLVMMMDPHDEWSGKIWLVTHVDLHRTNKVQSFVRFLKEHAKSWPQ", "soluble on expression in E. coli": "not soluble"}
